Laboratory results from IntAct's records for PubMed 18728196.

Biological target: pstp_myctu pstP (UniProt P9WHW5)

Question: Which “effect of a mutation on the interaction” value does the source give for “ECF RNA polymerase sigma factor SigH (Mycobacterium tuberculosis (strain ATCC 25618 / H37Rv)), P9WGH9 T26A;T106A” here?
Answer: disrupting interaction
